Experimental data as given in paper PMC10914790.

How the values were obtained:
Assay in all cases: MST; Clr4 constructs fluorescently labelled (BLUE-NHS), H3KC9me3 nucleosomes added at 8 nM to 2.5 μM; 10 mM Tris–HCl pH 7.5, 150 mM NaCl, 0.5 mM DTT, 0.05% Tween-20; 40% MST power, 80% LED; five runs
[1] = target: Clr4 chromodomain construct (S. pombe) (UniProt O60016)
[2] = target: Clr4 CD-deleted construct (S. pombe)
[3] = target: full-length Clr4 (Cryptic loci regulator protein 4), H3K9 methyltransferase (S. pombe) (UniProt O60016)

Kd [1]: 310 nM | Kd [2]: 422 nM | Kd [3]: 541 nM
Substance: H3KC9me3 nucleosome (H3K9 trimethyl-lysine analog nucleosome) (complex)
